# Patent US20240059757A1 (VIR BIOTECHNOLOGY, published 2024)
# Like-named read-outs stand apart in the source and are kept apart here.
# Columns and labels:
# [1] = target: T1, SARS-CoV RBD (Sino Biological) (SARS-CoV, UniProt P59594 306-527)
# [2] = target: T2, SARS-CoV-2 RBD-mouse Fc (Sino Biological) (SARS-CoV-2, UniProt P0DTC2 331-541)
# SARS-CoV-2 Spike protein [3] = target: T3, SARS-CoV-2 Spike protein (SARS-CoV-2 Wuhan-Hu-1, UniProt P0DTC2 14-1273); assay: cell-based or functional assay
# [4] = target: T4, SARS-CoV-2 RBD (residues 331-550 of spike from BetaCoV/Wuhan-Hu-1/2019, accession number MN908947) (SARS-CoV-2 Wuhan-Hu-1, UniProt P0DTC2 331-550)
# SARS-CoV-2 Spike protein [5] = target: T3, SARS-CoV-2 Spike protein; assay: cell-based or functional assay; remark: listed apart in the source
# [6] = target: T2, SARS-CoV-2 RBD-mouse Fc (Sino …); remark: listed apart in the source
# [7] = target: T4, SARS-CoV-2 RBD (residues 331-550 of …); assay: BLI (Octet): antibody on Protein A pins, SARS-CoV-2 RBD at 6, 1.5 and 0.4 µg/ml
# SARS-CoV-2 Spike protein [8] = target: T3, SARS-CoV-2 Spike protein; assay: cell-based or functional assay; remark: listed apart in the source
# [9] = target: T2, SARS-CoV-2 RBD-mouse Fc (Sino …); remark: listed apart in the source
# [10] = target: T2, SARS-CoV-2 RBD-mouse Fc (Sino …); remark: listed apart in the source
# [11] = target: T1, SARS-CoV RBD (Sino Biological); assay: ELISA
# SARS-CoV-2 Spike protein [12] = target: T3, SARS-CoV-2 Spike protein; assay: cell-based or functional assay; remark: listed apart in the source
# SARS-CoV-2 Spike protein [13] = target: T3, SARS-CoV-2 Spike protein; assay: cell-based or functional assay; remark: listed apart in the source
# SARS-CoV Spike protein = SARS-CoV Spike protein (SARS-CoV, UniProt P59594 14-1255); assay: cell-based or functional assay
# [14] = target: T4, SARS-CoV-2 RBD (residues 331-550 of …); assay: ELISA
# [15] = target: T1, SARS-CoV RBD (Sino Biological); assay: ELISA; remark: listed apart in the source
# [16] = target: T4, SARS-CoV-2 RBD (residues 331-550 of …); assay: BLI
# [17] = target: T1, SARS-CoV RBD (Sino Biological); assay: BLI
# SARS-CoV-2 Spike protein [18] = target: T3, SARS-CoV-2 Spike protein
# SARS-CoV-2 Spike protein [19] = target: T3, SARS-CoV-2 Spike protein; remark: listed apart in the source
# [20] = target: T4, SARS-CoV-2 RBD (residues 331-550 of …); assay: BLI (Octet): antibody on Protein A pins, SARS-CoV-2 RBD at 6, 1.5 and 0.4 µg/ml; remark: listed apart in the source
binder,measurement,setting,value
"S2X227 (antibody, V domains shown) VH: EVQLVQSGAEVKKPGASVKVSCKASGYTFTSYYMHWVRQAPGQGLEWMGIINPGGVSTTYAHYAQKFQGRVTMTRDTSTSTVYMELSSLRSEDTAVYYCARSIAVFWGDAFDIWGQGTMVTVSS VL: not shown",EC50,[1],1.35 µg/mL
same,IC50,[2],0.0274 µg/mL
same,neutralization EC50 (interpolated),SARS-CoV-2 Spike protein [3],0.0053 µg/mL
same,EC50,[4],0.00109 µg/mL
same,neutralization IC50,SARS-CoV-2 Spike protein [5],0.00445 µg/mL
"S2X129 (antibody, V domains shown) VH: EVQLVQSGAEVKKPGASVKVSCKASGYTFTDYFMHWVRQAPGQGLEWMGWISPNSGGTNYAQRFQGRVTMTRDTSISTTYMELSRLRSDDTAVYYCARDQAYIVLAQGSGMDVWGQGTTVTVSS VL: DIVMTQTPSSVSASVGDRVTITCRASQGISSWLAWYQQKPGKAPKLLISAASSLQSGVPSRFSGSGSGTDFTLTISTLQPEDFATYYCQQANSFPLAFGPGTKVDIK",IC50,[6],0.0214 µg/mL
same,Kd,[7],0.857 nM
"S2A4 (antibody, V domains shown) VH: EVQLVESGGGLVQPGGSLRLSCAASGFTFSSYWMNWVRQAPGKGLEWVANIKQDGSEKYYVDSVKGRFTISRDNAKNSLFLQMNSLRAEDTAVYYCARVWWLRGSFDYWGQGTLVTVSS VL: NFMLTQPHSVSESPGKTVTISCTGSSGSIASNYVQWYQQRPGSAPTTVIYEDNQRPSGVPDRFSGSIDSSSNSASLTISGLKTEDEADYYCQSYDSSNHVVFGGGTKLTVL",neutralization IC50,SARS-CoV-2 Spike protein [8],3.45 µg/mL
same,IC50 (read off the curve),[9],~0.06 µg/mL
"S2D32 (antibody, V domains shown) VH: EVQLVESGGGLVQPGRSLRLSCTSSGFTFGDYPMSWFRQAPGKGLEWVGFIRSKAYGGTTQYAASVKGRFTISRDDSKNIAYLQMNSLKTEDTAVYYCTREMWDCSGGRCYSPFFDYWGQGTLVTVSS VL: EIVMTQSPATLSVSPGERATLSCRASQTVSSNLAWYQQKPGQAPRLLIYGASTRATGIPARFSGSGSGTEFTLTISSLQSEDFAVYYCQQYNNWRTFGQGTKLEIK",IC50 (read off the curve),[10],~0.03 µg/mL
same,binding result,[11],no binding
same,neutralization IC50,SARS-CoV-2 Spike protein [12],0.036 µg/mL
same,neutralization IC80,SARS-CoV-2 Spike protein [12],0.081 µg/mL
same,neutralization IC90,SARS-CoV-2 Spike protein [12],0.129 µg/mL
same,neutralization IC95,SARS-CoV-2 Spike protein [12],0.2 µg/mL
"S2D22 (antibody, V domains shown) VH: EVHLVESGGGLVQPGGSLKLSCAASGFTFSGSAMHWVRQASGKGLEWVGRIRTKANTYATAYAASVKGRFTISRDDSKNTAYLQMNSLKTEDTAVYYCTRPAPYDFLSDYYTGEQLDYWGQGTLVTVSS VL: QSVLTQPPSVSGAPGQRVTISCTGSSSNIGAGYDVHWYQQLPGAAPKLLIYGNSNRPSGVPDRFSGSKSGTSASLAITGLQAEDEADYYCQSYDSSLSGPEVFGTGTKVTVL",neutralization IC50,SARS-CoV-2 Spike protein [13],1.03 µg/mL
same,neutralization IC50,SARS-CoV Spike protein,3.63 µg/mL
same,EC50,[14],0.0353 µg/mL
same,EC50,[15],0.0422 µg/mL
same,Kd,[16],5.21 nM
same,Kd,[17],53.5 nM
same,neutralization IC50,SARS-CoV-2 Spike protein [12],0.865 µg/mL
same,neutralization IC80,SARS-CoV-2 Spike protein [12],3.28 µg/mL
same,neutralization IC90,SARS-CoV-2 Spike protein [12],7.16 µg/mL
same,neutralization IC95,SARS-CoV-2 Spike protein [12],14.7 µg/mL
"S2A15 v1 (antibody, V domains shown) VH: QVQLQESGPGLVKPSGTLSLTCAVSGGSISSSNWWSWVRQPPGKGLEWIGEIYHSGNTNYNPSLKSRVTISVDKSKNQFSLKLTSVTAADTAVYYCASRYCSSTSCPNWFDPWGQGTLVTVSS VL: QSALTQPASVSGSPGQSITISCTGTSSDVGSYNLVSWYQQHPGKAPKFMIYEGSKRPSGVSNRFSGSKSGNTASLTISGLQAEDEADYYCCSYAGSSTWVFGGGTKLTVL",EC50,SARS-CoV-2 Spike protein [18],0.656 µg/mL
"S2A15 v2 (antibody, V domains shown) VH: QITLKESGPGLVKPSGTLSLTCAVSGGSISSSNWWSWVRQPPGKGLEWIGEIYHSGNTNYNPSLKSRVTISVDKSKNQFSLKLTSVTAADTAVYYCASRYCSSTSCPNWFDPWGQGTLVTVSS VL: QSALTQPASVSGSPGQSITISCTGTSSDVGSYNLVSWYQQHPGKAPKFMIYEGSKRPSGVSNRFSGSKSGNTASLTISGLQAEDEADYYCCSYAGSSTWVFGGGTKLTVL",EC50,SARS-CoV-2 Spike protein [18],0.335 µg/mL
"S2D8 (antibody, V domains shown) VH: EVQLLESGGGLVQPGGSLRLSCAASGFTFTTYAMSWVRQAPGKGLEWVSGISGSGGNTYHADSVKGRFTISRDNSKSTLYLQMNSLRAEDTAVYYCAKDLWFREILHGMDVWGEGTTVTVSS VL: QSALTQPASVSGSPGQSITISCTGTSSDIGGYNYVSWYQHHPGKAPKIMIYEVTNRPSGVSNRFSGSKSGNTASLTISGLQAEDEADYYCSSYTSSNTYVFGTGTKVTVL",IC50 (read off the curve),[9],~0.03 µg/mL
same,binding result,[11],no binding
same,neutralization IC50,SARS-CoV-2 Spike protein [12],0.03 µg/mL
same,neutralization IC80,SARS-CoV-2 Spike protein [12],0.058 µg/mL
same,neutralization IC90,SARS-CoV-2 Spike protein [12],0.087 µg/mL
same,neutralization IC95,SARS-CoV-2 Spike protein [12],0.125 µg/mL
"S2D25 (antibody, V domains shown) VH: EVQLVESGGGLVQPGGSLRLSCAASGFPFNIYAMSWVRQAPGKGLEWVSGISGSGGSTYYADSVRGRFAISRDNSKNTLYLQMNSLRAEDTAEYYCAKDLWFREILHGMDVWGKGTTVTVSS VL: QSALTQPASVSGSPGQSITISCTGTSSDVGGYNYVSWYQHHPGRAPKLMIYEVSNRPSGVSNRFSGSKSGNTASLSISGLQAEDEADYYCSSYTSSSTYVFGAGTKVTVL",IC50 (read off the curve),[10],~0.03 µg/mL
same,binding result,[11],no binding
same,neutralization IC50,SARS-CoV-2 Spike protein [12],0.04 µg/mL
same,neutralization IC80,SARS-CoV-2 Spike protein [12],0.091 µg/mL
same,neutralization IC90,SARS-CoV-2 Spike protein [12],0.146 µg/mL
same,neutralization IC95,SARS-CoV-2 Spike protein [12],0.228 µg/mL
"S2B2 v1 (antibody, V domains shown) VH: QVQLVESGGGVVQPGRSLRLSCAASGFTFSNFGMHWVRQAPGKGLEWVAVISYDGNNKFYADSVKGRFTISRDNSKNTLYLQMNSLRAEDTAVYYCAKPTVSFGVVIDAFDIWGQGTMVTVSS VL: not shown",EC50,SARS-CoV-2 Spike protein [19],0.0107 µg/mL
"S2B2 v2 (antibody, V domains shown) VH: EVQLVESGGGVVQPGRSLRLSCAASGFTFSNFGMHWVRQAPGKGLEWVAVISYDGNNKFYADSVKGRFTISRDNSKNTLYLQMNSLRAEDTAVYYCSKPTVSFGVVIDAFDIWGQGTMVTVSS VL: not shown",EC50,SARS-CoV-2 Spike protein [19],0.00812 µg/mL
"S2X127 (antibody, V domains shown) VH: EVQLVESGGGLIQPGGSLRLSCAASGLTVRSNYMSWVRQAPGKGLEWVSVMYSGGSTFYADSVKGRSTISRDNSKNTLYLQMNSLRAEDTAVYYCARGDIADDYHYGLDVWGQGTTVTVSS VL: QSVLTQPPSVSGAPGQRVTISCTGSTSNIGAGYNVHWYQHFPGTSPKLLIYGNSNRPSGVPDRFSGSKSGTSASLAITGLQAEDEAAYYCQSYDSNLSGVFGGGTKLTVL",Kd,[20],< 0.001 nM
same,IC50,[6],0.0102 µg/mL
"S2H14 (antibody, V domains shown) VH: not shown VL: NFMLTQPHSVSESPGKTVTISCTRSSGSIASNYVQWYQQRPGSSPTTVIYEDNQRPSGVPDRFSGSIDSSSNSASLTISGLKTEDEADYYCQSYDSSNQVFGGGTKLTVL",neutralization IC50,SARS-CoV-2 Spike protein [8],0.847 µg/mL
"S2H7 (antibody, V domains shown) VH: EVQLVESGGGLVQPGGSLRLSCAASGFIVSSNYMSWVRQAPGKGLEWVSVIYSGGSTYYADSVKGRFTISRDNSKNTLYLQMNSLRAEDTSVYYCARDRQYSGSPSFDYWGQGTLVTVSS VL: not shown",neutralization IC50,SARS-CoV-2 Spike protein [8],0.195 µg/mL
